Our source for the koff values is doi:10.1101/2025.02.04.635266.

In the experiment the target is IgG1-DNP-E430G (human). Put plainly: single molecule force spectroscopy.

As for “DNP-unspecific IgG1-E430G (tip-linked) (antibody)”, the koff was 1.8 s⁻¹.

By koff is commonly meant the rate constant with which the complex falls apart. A higher koff goes with a short-lived complex.
